± gives the uncertainty stated by the source.
B1: Ankyrin-1, residues 1405 to 1484; numbered along this chain, P16157 (parent)
chain: MKMAVISEHLGLSWAELARELQFSVEDINRIRVENPNSLLEQSVALLNLWVIREGQNANMENLYTALQSIDRGEIVNMLE

Variants of: B1
Assay: abundance fitness (aPCA) (normalised: wild type 0, dead -1); higher = more abundant; growth selection in yeast, the domain comes from the species named
Details: Homo sapiens

Variant	abundance fitness
F23L	-0.443 ± 0.061
F23I	0 ± 0.1
F23R	-0.833 ± 0.085
F23Y	-0.478 ± 0.12
F23T	-0.908 ± 0.31
K2G	-0.147 ± 0.048
K2S	-0.4 ± 0.087
K2M	-0.132 ± 0.14
K2A	-0.168 ± 0.062
K2W	0.098 ± 0.078
K2E	0.095 ± 0.1
K2V	-0.089 ± 0.057
K2D	-0.542 ± 0.14
M78N	-0.01 ± 0.15
M78D	-0.013 ± 0.096
M78E	-0.236 ± 0.14
M78A	-0.003 ± 0.061
M78H	-0.158 ± 0.15
M78V	0.043 ± 0.061
M78C	0.065 ± 0.085
M78F	-0.146 ± 0.11
S38M	-0.353 ± 0.12
S38T	-0.291 ± 0.13
I28G	-0.891 ± 0.11

Variant	abundance fitness
I28A	-0.522 ± 0.066
I28Y	-0.485 ± 0.2
I28P	-0.58 ± 0.14
L63I	0.037 ± 0.2
L63C	-0.748 ± 0.3
L63P	-0.805 ± 0.2
R53Y	-0.842 ± 0.35
R53E	-0.512 ± 0.1
E26P	-0.371 ± 0.089
E26Y	0.064 ± 0.15
E26T	0.023 ± 0.094
E26Q	-0.119 ± 0.098
E26F	-0.369 ± 0.14
E26G	-0.127 ± 0.039
E26A	-0.2 ± 0.066
W50Q	-0.708 ± 0.39
W50C	-0.71 ± 0.36
W50E	-0.834 ± 0.23
V76L	-0.054 ± 0.06
V76I	0.079 ± 0.13
A18V	-1.07 ± 0.15
A18I	-0.77 ± 0.16
A18T	-0.89 ± 0.2
A18W	-0.9 ± 0.19

Variant	abundance fitness
A18D	-0.96 ± 0.23
V44Q	0.18 ± 0.12
V44R	0.181 ± 0.051
V44S	0.154 ± 0.045
V44P	-0.911 ± 0.25
V44C	0.05 ± 0.062
V44F	0.182 ± 0.086
V44M	0.142 ± 0.084
V44D	0.112 ± 0.095
N37K	0.023 ± 0.13
N37L	-0.199 ± 0.074
N37R	-0.186 ± 0.092
L47M	0.061 ± 0.11
L47C	-0.061 ± 0.083
L47E	-0.874 ± 0.22
L47G	-0.521 ± 0.066
L47V	-0.308 ± 0.066
L47P	-0.654 ± 0.16
L47W	-0.673 ± 0.12
R72Q	-0.275 ± 0.1
R72H	-0.15 ± 0.14
R72L	-0.581 ± 0.087
R72D	-0.683 ± 0.17
R72P	-0.226 ± 0.13

Variant	abundance fitness
R72I	-0.753 ± 0.22
A45W	-0.921 ± 0.17
A45V	-0.513 ± 0.065
A45G	-0.248 ± 0.05
A45Q	-0.139 ± 0.1
A45P	-0.77 ± 0.28
A45I	-0.45 ± 0.14
E20L	-0.411 ± 0.057
E20Y	-0.286 ± 0.12
E20P	-0.996 ± 0.17
E20M	-0.077 ± 0.12
A58C	0.031 ± 0.14
A58W	-0.062 ± 0.077
A58H	-0.241 ± 0.24
A66S	-0.26 ± 0.069
A66I	-0.564 ± 0.28
A66K	-0.263 ± 0.12
S13T	-0.472 ± 0.18
S13P	-0.863 ± 0.39
S13W	-0.494 ± 0.16
I75F	-0.785 ± 0.45
I75H	-0.594 ± 0.27
I75Y	-0.692 ± 0.36
V5F	0.103 ± 0.091

Variant	abundance fitness
V5C	-0.18 ± 0.087
V5G	-0.592 ± 0.078
V5A	-0.231 ± 0.06
V5L	0.079 ± 0.052
L49Q	0.014 ± 0.075
L49F	-0.19 ± 0.091
L49G	-0.11 ± 0.046
L49E	-0.055 ± 0.078
L49P	-0.81 ± 0.19
E8A	-0.175 ± 0.064
E8Q	0.067 ± 0.17
E8D	-0.3 ± 0.12
E8N	-0.06 ± 0.16
E8C	-0.624 ± 0.18
N29E	-0.05 ± 0.067
N29W	-0.148 ± 0.051
N29H	-0.37 ± 0.2
N29F	-0.376 ± 0.14
D27C	-0.063 ± 0.15
D27G	-0.573 ± 0.081
D27R	-0.46 ± 0.071
D27S	-0.127 ± 0.058
V25R	-0.07 ± 0.046
V25Q	-0.03 ± 0.066

Variant	abundance fitness
E74I	-0.105 ± 0.19
E74Q	-0.45 ± 0.13
E74F	-0.741 ± 0.28
W14L	-0.538 ± 0.072
W14N	-0.865 ± 0.24
W14G	-0.895 ± 0.12
W14M	-0.454 ± 0.13
W14C	-1.05 ± 0.28
W14P	-0.785 ± 0.24
L40N	-0.372 ± 0.11
L40V	0.011 ± 0.052
L40A	-0.11 ± 0.052
L40E	-0.032 ± 0.099
S43T	-0.807 ± 0.21
S43H	-0.56 ± 0.14
S43L	-0.944 ± 0.13
S43K	-0.598 ± 0.15
S43D	-0.503 ± 0.15
D71S	-0.213 ± 0.07
D71P	-0.437 ± 0.11
D71A	-0.229 ± 0.053
D71Q	-0.274 ± 0.11
D71L	-0.811 ± 0.095
D71V	-0.83 ± 0.12

Variant	abundance fitness
P36H	-0.31 ± 0.12
P36Y	-0.565 ± 0.25
P36K	-0.267 ± 0.16
P36A	0.016 ± 0.071
P36C	-0.069 ± 0.098
N35W	-0.222 ± 0.096
N35L	-0.491 ± 0.12
N35R	-0.068 ± 0.11
L17M	-0.25 ± 0.12
L17S	-0.853 ± 0.14
L17F	0.009 ± 0.11
A4K	0.148 ± 0.18
A4N	-0.035 ± 0.13
A4T	-0.029 ± 0.088
A4H	-0.622 ± 0.28
A4R	-0.071 ± 0.076
L10E	-1.11 ± 0.41
L10M	-0.805 ± 0.27
L10A	-0.884 ± 0.2
E34D	-0.186 ± 0.33
E34K	-0.522 ± 0.41
E34G	-0.166 ± 0.074
E34H	-0.453 ± 0.18

— the Human Domainome abundance scans (Beltran et al. 2025)
